We go through one molecule from paper PMC7411789, “Application of a Glucose Dehydrogenase-Fused with Zinc Finger Protein to Label DNA Aptamers for the Electrochemical Detection of VEGF”.

In this data set the target is ZF-GDH (Zif268 fused to N-terminus of AfGDH) (mouse (Zif268); Aspergillus flavus (GDH), UniProt P08046 336-416). The data set is described as follows: method not stated; states fusion kept dsDNA binding, with ref 25; TBS: 10 mM Tris-HCl, 100 mM NaCl, pH 7.0; washes with 0.05% Tween-20, block 4% skim milk; 25 °C, 1 h.

B1: Zif268 target dsDNA (dsDNA)
DNA 1: GCGTGGGCG
DNA 2: CGCCCACGC
In the case of B1, the binding result is listed as “binds”.
